Test system: Escherichia coli TOP10
Assay: shrunken log2 fold change of peptide-encoding DNA abundance (4.5 h post-induction vs induction); higher = less antimicrobial activity (less host growth inhibition)
Conditions: time post-induction: 4.5 h; library: site-saturation at positions 5, 18, 19, 20
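Note: peptides expressed intracellularly from a pBAD plasmid library in pooled LB shake-flask culture, induced with 0.3% L-arabinose, DNA abundance read by NGS, three biological replicates, DESeq2 with apeglm shrinkage.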

| Sequence | shrunken log2 fold change |
| --- | --- |
| RRIRMRPPRLPRPRPRPMQYPRP | -0.315 |
| RRIRTRPPRLPRPRPRPELKPRP | 0.432 |
| RRIRWRPPRLPRPRPRPIMTPRP | -0.00859 |
| RRIRRRPPRLPRPRPRPEIKPRP | 0.27 |
| RRIRQRPPRLPRPRPRPVGIPRP | -0.0511 |
| RRIRYRPPRLPRPRPRPGPSPRP | -0.125 |
| RRIRHRPPRLPRPRPRPLFPPRP | -0.102 |
| RRIRLRPPRLPRPRPRPAIYPRP | -1.28 |
| RRIRTRPPRLPRPRPRPERGPRP | 0.715 |
| RRIRSRPPRLPRPRPRPYLFPRP | -0.676 |
| RRIRQRPPRLPRPRPRPNANPRP | 0.00568 |
| RRIRNRPPRLPRPRPRPCGMPRP | -0.45 |
| RRIRARPPRLPRPRPRPGWNPRP | 0.545 |
| RRIRMRPPRLPRPRPRPNDKPRP | 0.145 |
| RRIRIRPPRLPRPRPRPCSMPRP | -0.00947 |
| RRIRTRPPRLPRPRPRPREHPRP | 0.327 |
| RRIRSRPPRLPRPRPRPVTEPRP | -0.0851 |
| RRIRSRPPRLPRPRPRPDVPPRP | -0.0936 |
| RRIRRRPPRLPRPRPRPMHAPRP | 1.49 |
| RRIRKRPPRLPRPRPRPLSFPRP | -0.191 |
| RRIRRRPPRLPRPRPRPPGQPRP | 0.422 |
| RRIRIRPPRLPRPRPRPRDDPRP | 0.168 |
| RRIRFRPPRLPRPRPRPCHRPRP | -0.113 |
| RRIRFRPPRLPRPRPRPKQDPRP | 0.21 |
| RRIRVRPPRLPRPRPRPQFWPRP | -0.178 |

| Sequence | shrunken log2 fold change |
| --- | --- |
| RRIRVRPPRLPRPRPRPILVPRP | -0.00597 |
| RRIRHRPPRLPRPRPRPTDQPRP | -0.00155 |
| RRIRGRPPRLPRPRPRPSEMPRP | 0.4 |
| RRIRKRPPRLPRPRPRPERLPRP | 0.209 |
| RRIRKRPPRLPRPRPRPNFRPRP | 0.155 |
| RRIRYRPPRLPRPRPRPRWPPRP | 0.498 |
| RRIRIRPPRLPRPRPRPLLCPRP | -0.462 |
| RRIRTRPPRLPRPRPRPDMMPRP | -0.182 |
| RRIRFRPPRLPRPRPRPRHFPRP | 0.0931 |
| RRIRPRPPRLPRPRPRPWCTPRP | -0.218 |
| RRIRDRPPRLPRPRPRPVCQPRP | 0.0526 |
| RRIRHRPPRLPRPRPRPEGHPRP | 0.065 |
| RRIRLRPPRLPRPRPRPCTLPRP | -0.328 |
| RRIRQRPPRLPRPRPRPMMKPRP | -0.0269 |
| RRIRHRPPRLPRPRPRPLTSPRP | -0.246 |
| RRIRPRPPRLPRPRPRPKLSPRP | 0.331 |
| RRIRSRPPRLPRPRPRPRCIPRP | -0.155 |
| RRIRQRPPRLPRPRPRPSYLPRP | -0.482 |
| RRIRERPPRLPRPRPRPLIFPRP | -0.406 |
| RRIRVRPPRLPRPRPRPGSLPRP | -0.363 |
| RRIRQRPPRLPRPRPRPFHPPRP | -0.197 |
| RRIRERPPRLPRPRPRPHRFPRP | -0.169 |
| RRIRWRPPRLPRPRPRPFFPPRP | -0.0359 |
| RRIRPRPPRLPRPRPRPEMCPRP | 0.291 |
| RRIRVRPPRLPRPRPRPCKPPRP | -0.692 |

| Sequence | shrunken log2 fold change |
| --- | --- |
| RRIRRRPPRLPRPRPRPTLTPRP | 0.466 |
| RRIRGRPPRLPRPRPRPYNCPRP | -0.0269 |
| RRIRHRPPRLPRPRPRPECWPRP | 0.514 |
| RRIRVRPPRLPRPRPRPYDAPRP | -0.294 |
| RRIRLRPPRLPRPRPRPRSRPRP | 0.394 |
| RRIRWRPPRLPRPRPRPRPGPRP | 0.772 |
| RRIRSRPPRLPRPRPRPLLHPRP | -0.0854 |
| RRIRDRPPRLPRPRPRPNSGPRP | -0.269 |
| RRIRHRPPRLPRPRPRPKSNPRP | -0.216 |
| RRIRIRPPRLPRPRPRPRPIPRP | 0.0745 |
| RRIRGRPPRLPRPRPRPTQDPRP | 1.34 |
| RRIRIRPPRLPRPRPRPKPEPRP | 0.0874 |
| RRIRTRPPRLPRPRPRPFWPPRP | 0.178 |
| RRIRPRPPRLPRPRPRPNIMPRP | -0.694 |
| RRIRGRPPRLPRPRPRPWCEPRP | 0.0333 |
| RRIRIRPPRLPRPRPRPWAAPRP | 0.00251 |
| RRIRYRPPRLPRPRPRPDLMPRP | -0.107 |
| RRIRRRPPRLPRPRPRPDVWPRP | 0.611 |
| RRIRLRPPRLPRPRPRPKFAPRP | 0.293 |
| RRIRCRPPRLPRPRPRPRTNPRP | 0.0761 |
| RRIRARPPRLPRPRPRPNPKPRP | 0.372 |
| RRIRWRPPRLPRPRPRPGHWPRP | 0.335 |
| RRIRVRPPRLPRPRPRPHINPRP | -0.524 |
| RRIRRRPPRLPRPRPRPWPLPRP | 0.468 |
| RRIRPRPPRLPRPRPRPLDPPRP | 0.201 |

| Sequence | shrunken log2 fold change |
| --- | --- |
| RRIRWRPPRLPRPRPRPVYTPRP | -0.242 |
| RRIRLRPPRLPRPRPRPHGAPRP | 0.0606 |
| RRIRIRPPRLPRPRPRPSPGPRP | -0.552 |
| RRIRGRPPRLPRPRPRPSDNPRP | -0.165 |
| RRIRERPPRLPRPRPRPPGLPRP | 0.433 |
| RRIRQRPPRLPRPRPRPGKSPRP | -0.103 |
| RRIRVRPPRLPRPRPRPVRYPRP | -0.136 |
| RRIRPRPPRLPRPRPRPTHYPRP | 0.206 |
| RRIRRRPPRLPRPRPRPVVFPRP | 0.286 |
| RRIRHRPPRLPRPRPRPKAGPRP | -0.115 |
| RRIRTRPPRLPRPRPRPQVQPRP | -0.0311 |
| RRIRERPPRLPRPRPRPVMCPRP | 0.0654 |
| RRIRSRPPRLPRPRPRPPHAPRP | 0.629 |
| RRIRPRPPRLPRPRPRPSPMPRP | -0.259 |
| RRIRVRPPRLPRPRPRPPSQPRP | 0.125 |
| RRIRKRPPRLPRPRPRPASGPRP | 0.591 |
| RRIRFRPPRLPRPRPRPAECPRP | -0.16 |
| RRIRIRPPRLPRPRPRPKALPRP | -0.0211 |
| RRIRQRPPRLPRPRPRPQQVPRP | -0.0545 |
| RRIRFRPPRLPRPRPRPGSLPRP | -0.479 |
| RRIRIRPPRLPRPRPRPVCHPRP | -0.179 |
| RRIRIRPPRLPRPRPRPVAKPRP | -0.0157 |
| RRIRHRPPRLPRPRPRPIEFPRP | -0.19 |
| RRIRWRPPRLPRPRPRPGFWPRP | 0.494 |
| RRIRLRPPRLPRPRPRPHEYPRP | -0.0491 |

| Sequence | shrunken log2 fold change |
| --- | --- |
| RRIRNRPPRLPRPRPRPMAQPRP | 0.0103 |
| RRIRIRPPRLPRPRPRPMANPRP | -0.104 |
| RRIRTRPPRLPRPRPRPNLKPRP | -0.374 |
| RRIRERPPRLPRPRPRPNRVPRP | -0.00226 |
| RRIRQRPPRLPRPRPRPVYYPRP | 0.0771 |
| RRIRNRPPRLPRPRPRPYYPPRP | -0.141 |
| RRIRIRPPRLPRPRPRPTCAPRP | -0.166 |
| RRIRVRPPRLPRPRPRPLRMPRP | 0.191 |
| RRIRPRPPRLPRPRPRPVCGPRP | 0.208 |
| RRIRERPPRLPRPRPRPAPRPRP | 0.734 |
| RRIRDRPPRLPRPRPRPGADPRP | 0.655 |
| RRIRSRPPRLPRPRPRPHKCPRP | 0.00997 |
| RRIRCRPPRLPRPRPRPQYYPRP | -0.977 |
| RRIRGRPPRLPRPRPRPWNHPRP | -0.052 |
| RRIRQRPPRLPRPRPRPSGIPRP | 0.144 |
| RRIRHRPPRLPRPRPRPMLSPRP | -0.0786 |
| RRIRGRPPRLPRPRPRPGWKPRP | 0.0657 |
| RRIRVRPPRLPRPRPRPVHDPRP | -0.745 |
| RRIRQRPPRLPRPRPRPEYYPRP | -0.306 |
| RRIRCRPPRLPRPRPRPLTWPRP | -0.16 |
| RRIRFRPPRLPRPRPRPCCWPRP | 0.148 |
| RRIRARPPRLPRPRPRPLQFPRP | 0.0375 |
| RRIRARPPRLPRPRPRPIAAPRP | 0.925 |
| RRIRKRPPRLPRPRPRPKMQPRP | 0.00648 |
| RRIRMRPPRLPRPRPRPASCPRP | 0.629 |
